# Measurements as given in the supplement of paper PMC10724198.
# ± gives the standard deviation of the averaged measurements.
# Tested on: Saccharomyces cerevisiae
# Test: protein stability index of tFT-peptide fusion (C-terminal peptide) (PSI (0-1 scale)); higher = more stable (slower turnover)
# Details: genetic background: wild type; temperature: 30 C
# 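Also: PSI is a weighted mean of sequencing reads over stability bins, variants kept only with over 10 reads, mCherry proximal and sfGFP distal, peptide attached via GGGS linker.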
row,Sequence,protein stability index
1,PQWFPNYLRLLL,0.517 ± 0.041
2,PRAGPPPPPPSP,0.734 ± 0.028
3,PRAPRPHPLTNF,0.673 ± 0.051
4,PRASDPPPSPYP,0.766 ± 0.057
5,PRCPSTPQPEHH,0.739 ± 0.027
6,PRELFGFNLAQP,0.692 ± 0.011
7,PRGLGPPGWGRR,0.697 ± 0.022
8,PRGLLLPLPCHS,0.574 ± 0.00058
9,PRLDPTSPPPHA,0.675 ± 0.0094
10,PRLFLFRSSFPP,0.681 ± 0.048
11,PRLIESYRPITS,0.715 ± 0.09
12,PRLPPPHRRPAP,0.759 ± 0.022
13,PRLRRVCGQSLV,0.6664 ± 0.0066
14,PRLSLPSAPPRP,0.732 ± 0.08
15,PRPGQPFSRFRF,0.6724 ± 0.0054
16,PRPGSRCPIKGR,0.692 ± 0.024
17,PRPLFVHTSSTF,0.7105 ± 0.0024
18,PRPLLLLPPATP,0.703 ± 0.029
19,PRPLLVPPLFKS,0.768 ± 0.031
20,PRPLPVCTDVHD,0.642 ± 0.019
21,PRPPLPPASPPL,0.595 ± 0.044
22,PRPPLPSLHLSP,0.679 ± 0.024
23,PRPPPATRPGPP,0.688 ± 0.017
24,PRPPPSFPPDPS,0.669 ± 0.049
25,PRPPSSSPHPHP,0.727 ± 0.095
26,PRPTPPHPPITR,0.824 ± 0.027

row,Sequence,protein stability index
1,PRPTPPHSPLLP,0.586 ± 0.02
2,PRPVRAVEMLTL,0.715 ± 0.029
3,PRSLLSPPGSVD,0.704 ± 0.026
4,PRSPTPPPSYSP,0.715 ± 0.11
5,PRVCSCFLPTRP,0.711 ± 0.01
6,PRVCSLLPSGSF,0.711 ± 0.014
7,PRYRTPPLPPPG,0.55 ± 0.012
8,PSADRQSMRCRR,0.631 ± 0.007
9,PSALPLVPSPLP,0.706 ± 0.033
10,PSAPFLPSPPPV,0.661 ± 0.021
11,PSAWRCFSTGKV,0.844 ± 0.018
12,PSDLPPPTPLLA,0.63 ± 0.022
13,PSDSRSTPPTPD,0.698 ± 0.033
14,PSFFFFAAPLPL,0.623 ± 0.028
15,PSFLPLWFSRLR,0.731 ± 0.093
16,PSFVIQRCPMIL,0.606 ± 0.076
17,PSFVRTVPSPCP,0.658 ± 0.011
18,PSGCIPCNVGVS,0.705 ± 0.099
19,PSGSFPPCLGSP,0.653 ± 0.018
20,PSGVKILFELKP,0.645 ± 0.03
21,PSHPSPPPPAPP,0.692 ± 0.041
22,PSHRPWPPTRPP,0.677 ± 0.033
23,PSIKRSVKPFSP,0.857 ± 0.2
24,PSIPSNPPTPPR,0.72 ± 0.033
25,PSLARWLTLGYM,0.63 ± 0.013
26,PSLNPRVSFVNL,0.685 ± 0.0073

row,Sequence,protein stability index
1,PSLSPSLLRFNL,0.66 ± 0.015
2,PSLSPSPRITSS,0.65 ± 0.077
3,PSMLFPRTLSPL,0.6963 ± 0.0056
4,PSPALPANQSFY,0.665 ± 0.019
5,PSPLLPPPLPPS,0.678 ± 0.046
6,PSPLPPPPLPLS,0.5739 ± 0.0048
7,PSPLPPVPPPPP,0.639 ± 0.095
8,PSPPAPPPSPLP,0.823 ± 0.15
9,PSPPPAPAPLLA,0.667 ± 0.032
10,PSPPPPPPPGSF,0.677 ± 0.06
11,PSPPPPPSPSPP,0.626 ± 0.014
12,PSPPPSQSLPPP,0.717 ± 0.043
13,PSPPPVSPVVPP,0.672 ± 0.036
14,PSPPTSLPPTDA,0.706 ± 0.029
15,PSPPTYPSFPSR,0.724 ± 0.041
16,PSPSLYPPASPP,0.654 ± 0.046
17,PSPSVVPASSPP,0.669 ± 0.03
18,PSPVPPSPPPSP,0.512 ± 0.083
19,PSPVPSLPPFLP,0.745 ± 0.13
20,PSRLPSPPPPPP,0.721 ± 0.073
21,PSRLSKTLLMGW,0.676 ± 0.07
22,PSRPPPTPPLPP,0.629 ± 0.14
23,PSRSFLPTHCSL,0.666 ± 0.017
24,PSRYHLFLPSPA,0.73 ± 0.055
25,PSSFIRFLLCCF,0.644 ± 0.04
26,PSSPPPPPLSPL,0.664 ± 0.017

row,Sequence,protein stability index
1,PSSPPTPLPPRS,0.663 ± 0.077
2,PSSTSPPPPPPP,0.695 ± 0.025
3,PSSWPPPPPPLP,0.614 ± 0.022
4,PSSYFFPPHFLL,0.665 ± 0.1
5,PSTLKQVMNLGA,0.666 ± 0.18
6,PSTPPPPPGDFL,0.709 ± 0.037
7,PSTSHLALSWSV,0.703 ± 0.065
8,PSVAPFPLAPFS,0.71 ± 0.066
9,PSVLGCIVPLIW,0.7197 ± 0.0043
10,PSVLLAPTRRHP,0.678 ± 0.0016
11,PSVPLAGFVCRA,0.587 ± 0.11
12,PSVPPRVCSFSI,0.735 ± 0.08
13,PSWEPLPLPAVL,0.707 ± 0.018
14,PSYKRGGSYPMQ,0.692 ± 0.049
15,PSYLALPLSTSP,0.684 ± 0.024
16,PTAPPRLRLSFC,0.667 ± 0.0089
17,PTASDPLPPPPN,0.867 ± 0.13
18,PTATMLFLTRTG,0.702 ± 0.043
19,PTHCTPRRRTRR,0.676 ± 0.014
20,PTHSRQPPYLSL,0.684 ± 0.027
21,PTIGTLPTVGDD,0.656 ± 0.02
22,PTIPLLPPPLPP,0.622 ± 0.022
23,PTKRHRKAPGTN,0.629 ± 0.069
24,PTLTTQPNVPLN,0.723 ± 0.038
25,PTPPRRPLSFSP,0.653 ± 0.057
26,PTQSDSTSTSRI,0.69 ± 0.016

row,Sequence,protein stability index
1,PTRPPAPGPGRH,0.744 ± 0.045
2,PTRPPSLPRIPP,0.669 ± 0.028
3,PTRQTIWPPPAS,0.748 ± 0.026
4,PTSACAPACPLL,0.706 ± 0.032
5,PTSLPLPPPSLS,0.7333 ± 0.0056
6,PTSPPPPPPPPP,0.657 ± 0.084
7,PVAQSCHAPSPP,0.62303 ± 0.00018
8,PVFGRPFCSSSV,0.682 ± 0.061
9,PVFLQRVIPRSR,0.678 ± 0.096
10,PVHHLSLPSPLL,0.732 ± 0.037
11,PVLPPPAPSPPP,0.678 ± 0.042
12,PVLVLPHARSPF,0.695 ± 0.021
13,PVPASSSRSLLL,0.671 ± 0.0095
14,PVPPQHPPLKSI,0.705 ± 0.059
15,PVPRRPLLPLPP,0.663 ± 0.02
16,PVPSPLLPSFSL,0.715 ± 0.064
17,PVSPALTPFPPS,0.705 ± 0.043
18,PVSSPSSPLPPL,0.678 ± 0.054
19,PVVKVCRPVFLD,0.829 ± 0.13
20,PWFIGGSLGESG,0.699 ± 0.027
21,PWQSSPFTPALT,0.649 ± 0.057
22,PWTRMHRETRYL,0.683 ± 0.02
23,PWVSGGMGKGDV,0.686 ± 0.0075
24,PYAFPPPPPPPP,0.64 ± 0.032
25,PYFLLLVSIPPS,0.525 ± 0.0056
26,PYHTITPKPLQR,0.677 ± 0.049

row,Sequence,protein stability index
1,PYLLGPIPGIPR,0.666 ± 0.059
2,PYPPPPRLLVSP,0.7359 ± 0.0056
3,PYQPSPFRLAAG,0.67 ± 0.1
4,PYRPPPPLALSL,0.693 ± 0.015
5,PYRWQTRPDAVD,0.666 ± 0.014
6,PYSCPPGCRSVL,0.6894 ± 0.0043
7,PYSGSPRALPRP,0.716 ± 0.069
8,PYTHFFSPPFWP,0.766 ± 0.04
9,PYTPLLLSTLAP,0.6899 ± 0.0016
10,PYWYPRASRGAL,0.699 ± 0.043
11,QAKNNKKQKGWQ,0.646 ± 0.046
12,QARKGPISSCRP,0.664 ± 0.067
13,QARSLVRSLCYP,0.677 ± 0.0082
14,QAVVGSYRELGE,0.709 ± 0.038
15,QCIYVCKKTPTI,0.679 ± 0.067
16,QCNTFNKEKPER,0.694 ± 0.021
17,QCQVKGIFKKVF,0.687 ± 0.0076
18,QDDTASMVVMIR,0.697 ± 0.034
19,QDLDTALLLHAF,0.657 ± 0.018
20,QDSDRSLTPKPL,0.688 ± 0.028
21,QEALLAPEYSVD,0.7 ± 0.0096
22,QEMMRGVVGGNW,0.715 ± 0.033
23,QEVKLAPEHRLR,0.675 ± 0.013
24,QFCYSNPVSRYG,0.6899 ± 0.004
25,QFIFSRGGLPVL,0.7351 ± 0.0015
26,QFIPIRSIIMRG,0.73 ± 0.038

row,Sequence,protein stability index
1,QFLWCFRPCCCS,0.584 ± 0.081
2,QFVLLFRSSGLR,0.7104 ± 0.0017
3,QGERHCCILVST,0.555 ± 0.025
4,QGGLCGVYGWSL,0.68 ± 0.042
5,QGGSHARDRRRL,0.678 ± 0.013
6,QHFSSPQPVPYS,0.696 ± 0.013
7,QIKARVRRDLTL,0.692 ± 0.096
8,QKKIKNKRQHRT,0.795 ± 0.11
9,QKKKILNKQRTK,0.681 ± 0.033
10,QKKKKNRKQKIK,0.696 ± 0.017
11,QKKKPEKKAKRA,0.721 ± 0.013
12,QKNMVKKVENTR,0.7637 ± 0.0067
13,QKPHGDVSFQVM,0.662 ± 0.033
14,QKPKDYTEDKRD,0.718 ± 0.11
15,QKRAREKAPTPD,0.729 ± 0.012
16,QKTYHATQTRRR,0.6839 ± 0.00099
17,QLASISPSPNPS,0.692 ± 0.021
18,QLCRPRIFTNRG,0.662 ± 0.034
19,QLDRRKDSLLRH,0.746 ± 0.017
20,QLPPRLSRRLPP,0.741 ± 0.17
21,QLRRPPPPLPLP,0.714 ± 0.0072
22,QLSSARTILRRP,0.597 ± 0.0085
23,QNHKSYQTQDHN,0.616 ± 0.051
24,QNLEDDLSIAGS,0.703 ± 0.02
25,QNNRKEIKRNEI,0.6662 ± 0.0039
26,QNPRTDEAVRSP,0.619 ± 0.011

row,Sequence,protein stability index
1,QPPAKSRETKYR,0.741 ± 0.031
2,QPPPPRLPPRPP,0.622 ± 0.0027
3,QPRPSISGLSPT,0.642 ± 0.02
4,QQKKCNTIKKNE,0.637 ± 0.0024
5,QQLWQTHEHQAR,0.674 ± 0.035
6,QQQSTKHSEERV,0.691 ± 0.014
7,QRGDDFHDTSPA,0.708 ± 0.0082
8,QRGEGTSQGILT,0.807 ± 0.13
9,QSAFLFGFMSFW,0.62 ± 0.025
10,QSFGSYYLTIAL,0.67 ± 0.036
11,QSHNDIRDGPPR,0.679 ± 0.021
12,QSIESKKIKQKE,0.7109 ± 0.0048
13,QSNPAERASSRL,0.692 ± 0.022
14,QSQMEKGTIVWT,0.705 ± 0.011
15,QSSWVGRGVRGG,0.647 ± 0.014
16,QTLKKRRNRSRG,0.684 ± 0.041
17,QTLQHLQTPSIS,0.761 ± 0.092
18,QTYEGSKGHLRD,0.6625 ± 0.0044
19,QTYQQSVKNRDD,0.666 ± 0.061
20,QVDVLVCKLEVP,0.672 ± 0.11
